Columns and labels:
HIV gp120 Bal = HIV gp120 Bal (HIV); assay: single-point ELISA; also: test concentration or dose not given here
HIV gp120 CAAN = HIV gp120 CAAN (HIV); assay: single-point ELISA; also: test concentration or dose not given here

Row | Binder | ELISA (A450) (HIV gp120 Bal) | ELISA (A450) (HIV gp120 CAAN)
1 | 1.1.4-1 (antibody, human IgG1, kappa) heavy: QVQLLQSGAAVTKPGASVRVSCEASGYNIRDYFIHWWRQAPGQGLQWVGWINPKTGQPNNPRQFQGRVSLTRHASWDFDTFSFYMDLKALRSDDTAVYFCARQRSDYWDFDVWGSGTQVTVSSASTKGPSVFPLAPSSKSTSGGTAALGCLVKDYFPEPVTVSWNSGALTSGVHTFPAVLQSSGLYSLSSVVTVPSSSLGTQTYICNVNHKPSNTKVDKKVEPKSCDKTHTCPPCPAPELLAGPDVFLFPPKPKDTLMISRTPEVTCVVVDVSHEDPEVKFNWYVDGVEVHNAKTKPREEQYNSTYRVVSVLTVLHQDWLNGKEYKCKVSNKALPLPEEKTISKAKGQPREPQVYTLPPSREEMTKNQVSLTCLVKGFYPSDIAVEWESNGQPENNYKTTPPVLDSDGSFFLYSKLTVDKSRWQQGNVFSCSVLHEALHSHYTQKSLSLSPGK light: DIQMTQSPSSLSASVGDRVTITCQANGYLNWYQQRRGKAPKLLIYDGSKLERGVPSRFSGRRWGQEYNLTINNLQPEDIATYFCQVYEFVVPGTRLDLKRTVAAPSVFIFPPSDEQLKSGTASVVCLLNNFYPREAKVQWKVDNALQSGNSQESVTEQDSKDSTYSLSSTLTLSKADYEKHKVYACEVTHQGLSSPVTKSFNRGEC | 0.96 | 1.09
2 | 1.1.9-1 (antibody, human IgG1, kappa) heavy: QVQLLQSGAAVTKPGASVRVSCEASGYNIRDYFIHWWRQAPGQGLQWVGWINPKTGQPNNPRQFQGRVSLTRHASWDFDTFSFYMDLKALRSDDTAVYFCARQRSDYWDFDVWGSGTQVTVSSASTKGPSVFPLAPSSKSTSGGTAALGCLVKDYFPEPVTVSWNSGALTSGVHTFPAVLQSSGLYSLSSVVTVPSSSLGTQTYICNVNHKPSNTKVDKKVEPKSCDKTHTCPPCPAPELLAGPDVFLFPPKPKDTLMISRTPEVTCVVVDVSHEDPEVKFNWYVDGVEVHNAKTKPREEQYNSTYRVVSVLTVLHQDWLNGKEYKCKVSNKALPLPEEKTISKAKGQPREPQVYTLPPSREEMTKNQVSLTCLVKGFYPSDIAVEWESNGQPENNYKTTPPVLDSDGSFFLYSKLTVDKSRWQQGNVFSCSVLHEALHSHYTQKSLSLSPGK light: DIQMTQSPSSLSASVGDTVTITCQANGYLNWYQQRRGKAPKLLIYDGSKLETGVPSRFSGRRWGQEYNLTINNLQPEDIATYFCQVYEFVVPGTRLDLKRTVAAPSVFIFPPSDEQLKSGTASVVCLLNNFYPREAKVQWKVDNALQSGNSQESVTEQDSKDSTYSLSSTLTLSKADYEKHKVYACEVTHQGLSSPVTKSFNRGEC | 0.98 | 0.93
3 | 1.1.10-1 (antibody, human IgG1, kappa) heavy: QVQLLQSGAAVTKPGASVRVSCEASGYNIRDYFIHWWRQAPGQGLQWVGWINPKTGQPNNPRQFQGRVSLTRHASWDFDTFSFYMDLKALRSDDTAVYFCARQRSDYWDFDVWGSGTQVTVSSASTKGPSVFPLAPSSKSTSGGTAALGCLVKDYFPEPVTVSWNSGALTSGVHTFPAVLQSSGLYSLSSVVTVPSSSLGTQTYICNVNHKPSNTKVDKKVEPKSCDKTHTCPPCPAPELLAGPDVFLFPPKPKDTLMISRTPEVTCVVVDVSHEDPEVKFNWYVDGVEVHNAKTKPREEQYNSTYRVVSVLTVLHQDWLNGKEYKCKVSNKALPLPEEKTISKAKGQPREPQVYTLPPSREEMTKNQVSLTCLVKGFYPSDIAVEWESNGQPENNYKTTPPVLDSDGSFFLYSKLTVDKSRWQQGNVFSCSVLHEALHSHYTQKSLSLSPGK light: DIQMTQSPSSLSASVGDTVTITCQANGYLNWYQQRRGKAPKLLIYDGSKLERGVPSRFSGRRWGQEYTLTINNLQPEDIATYFCQVYEFVVPGTRLDLKRTVAAPSVFIFPPSDEQLKSGTASVVCLLNNFYPREAKVQWKVDNALQSGNSQESVTEQDSKDSTYSLSSTLTLSKADYEKHKVYACEVTHQGLSSPVTKSFNRGEC | 0.94 | 1.1
4 | 1.1.6-1 (antibody, human IgG1, kappa) heavy: QVQLLQSGAAVTKPGASVRVSCEASGYNIRDYFIHWWRQAPGQGLQWVGWINPKTGQPNNPRQFQGRVSLTRHASWDFDTFSFYMDLKALRSDDTAVYFCARQRSDYWDFDVWGSGTQVTVSSASTKGPSVFPLAPSSKSTSGGTAALGCLVKDYFPEPVTVSWNSGALTSGVHTFPAVLQSSGLYSLSSVVTVPSSSLGTQTYICNVNHKPSNTKVDKKVEPKSCDKTHTCPPCPAPELLAGPDVFLFPPKPKDTLMISRTPEVTCVVVDVSHEDPEVKFNWYVDGVEVHNAKTKPREEQYNSTYRVVSVLTVLHQDWLNGKEYKCKVSNKALPLPEEKTISKAKGQPREPQVYTLPPSREEMTKNQVSLTCLVKGFYPSDIAVEWESNGQPENNYKTTPPVLDSDGSFFLYSKLTVDKSRWQQGNVFSCSVLHEALHSHYTQKSLSLSPGK light: DIQMTQSPSSLSASVGDTVTITCQANGYLNWYQQRRGKAPKLLIYDASKLERGVPSRFSGRRWGQEYNLTINNLQPEDIATYFCQVYEFVVPGTRLDLKRTVAAPSVFIFPPSDEQLKSGTASVVCLLNNFYPREAKVQWKVDNALQSGNSQESVTEQDSKDSTYSLSSTLTLSKADYEKHKVYACEVTHQGLSSPVTKSFNRGEC | 0.91 | 0.46
5 | 1.1.8-1 (antibody, human IgG1, kappa) heavy: QVQLLQSGAAVTKPGASVRVSCEASGYNIRDYFIHWWRQAPGQGLQWVGWINPKTGQPNNPRQFQGRVSLTRHASWDFDTFSFYMDLKALRSDDTAVYFCARQRSDYWDFDVWGSGTQVTVSSASTKGPSVFPLAPSSKSTSGGTAALGCLVKDYFPEPVTVSWNSGALTSGVHTFPAVLQSSGLYSLSSVVTVPSSSLGTQTYICNVNHKPSNTKVDKKVEPKSCDKTHTCPPCPAPELLAGPDVFLFPPKPKDTLMISRTPEVTCVVVDVSHEDPEVKFNWYVDGVEVHNAKTKPREEQYNSTYRVVSVLTVLHQDWLNGKEYKCKVSNKALPLPEEKTISKAKGQPREPQVYTLPPSREEMTKNQVSLTCLVKGFYPSDIAVEWESNGQPENNYKTTPPVLDSDGSFFLYSKLTVDKSRWQQGNVFSCSVLHEALHSHYTQKSLSLSPGK light: DIQMTQSPSSLSASVGDTVTITCQANGYLNWYQQRRGKAPKLLIYDASNLERGVPSRFSGRRWGQEYNLTINNLQPEDIATYFCQVYEFVVPGTRLDLKRTVAAPSVFIFPPSDEQLKSGTASVVCLLNNFYPREAKVQWKVDNALQSGNSQESVTEQDSKDSTYSLSSTLTLSKADYEKHKVYACEVTHQGLSSPVTKSFNRGEC | 1.01 | 0.5
6 | 1.1.11-1 (antibody, human IgG1, kappa) heavy: QVQLLQSGAAVTKPGASVRVSCEASGYNIRDYFIHWWRQAPGQGLQWVGWINPKTGQPNNPRQFQGRVSLTRHASWDFDTFSFYMDLKALRSDDTAVYFCARQRSDYWDFDVWGSGTQVTVSSASTKGPSVFPLAPSSKSTSGGTAALGCLVKDYFPEPVTVSWNSGALTSGVHTFPAVLQSSGLYSLSSVVTVPSSSLGTQTYICNVNHKPSNTKVDKKVEPKSCDKTHTCPPCPAPELLAGPDVFLFPPKPKDTLMISRTPEVTCVVVDVSHEDPEVKFNWYVDGVEVHNAKTKPREEQYNSTYRVVSVLTVLHQDWLNGKEYKCKVSNKALPLPEEKTISKAKGQPREPQVYTLPPSREEMTKNQVSLTCLVKGFYPSDIAVEWESNGQPENNYKTTPPVLDSDGSFFLYSKLTVDKSRWQQGNVFSCSVLHEALHSHYTQKSLSLSPGK light: DIQMTQSPSSLSASVGDTVTITCQANGYLNWYQQRRGKAPKLLIYDGSKLERGVPSRFSGSRWGQEYTLTINNLQPEDIATYFCQVYEFVVPGTRLDLKRTVAAPSVFIFPPSDEQLKSGTASVVCLLNNFYPREAKVQWKVDNALQSGNSQESVTEQDSKDSTYSLSSTLTLSKADYEKHKVYACEVTHQGLSSPVTKSFNRGEC | 0.92 | 1.03
7 | 1.1.7-1 (antibody, human IgG1, kappa) heavy: QVQLLQSGAAVTKPGASVRVSCEASGYNIRDYFIHWWRQAPGQGLQWVGWINPKTGQPNNPRQFQGRVSLTRHASWDFDTFSFYMDLKALRSDDTAVYFCARQRSDYWDFDVWGSGTQVTVSSASTKGPSVFPLAPSSKSTSGGTAALGCLVKDYFPEPVTVSWNSGALTSGVHTFPAVLQSSGLYSLSSVVTVPSSSLGTQTYICNVNHKPSNTKVDKKVEPKSCDKTHTCPPCPAPELLAGPDVFLFPPKPKDTLMISRTPEVTCVVVDVSHEDPEVKFNWYVDGVEVHNAKTKPREEQYNSTYRVVSVLTVLHQDWLNGKEYKCKVSNKALPLPEEKTISKAKGQPREPQVYTLPPSREEMTKNQVSLTCLVKGFYPSDIAVEWESNGQPENNYKTTPPVLDSDGSFFLYSKLTVDKSRWQQGNVFSCSVLHEALHSHYTQKSLSLSPGK light: DIQMTQSPSSLSASVGDTVTITCQANGYLNWYQQRRGKAPKLLIYDGSNLERGVPSRFSGRRWGQEYNLTINNLQPEDIATYFCQVYEFVVPGTRLDLKRTVAAPSVFIFPPSDEQLKSGTASVVCLLNNFYPREAKVQWKVDNALQSGNSQESVTEQDSKDSTYSLSSTLTLSKADYEKHKVYACEVTHQGLSSPVTKSFNRGEC | 0.95 | 1
8 | 1.1.5-1 (antibody, human IgG1, kappa) heavy: QVQLLQSGAAVTKPGASVRVSCEASGYNIRDYFIHWWRQAPGQGLQWVGWINPKTGQPNNPRQFQGRVSLTRHASWDFDTFSFYMDLKALRSDDTAVYFCARQRSDYWDFDVWGSGTQVTVSSASTKGPSVFPLAPSSKSTSGGTAALGCLVKDYFPEPVTVSWNSGALTSGVHTFPAVLQSSGLYSLSSVVTVPSSSLGTQTYICNVNHKPSNTKVDKKVEPKSCDKTHTCPPCPAPELLAGPDVFLFPPKPKDTLMISRTPEVTCVVVDVSHEDPEVKFNWYVDGVEVHNAKTKPREEQYNSTYRVVSVLTVLHQDWLNGKEYKCKVSNKALPLPEEKTISKAKGQPREPQVYTLPPSREEMTKNQVSLTCLVKGFYPSDIAVEWESNGQPENNYKTTPPVLDSDGSFFLYSKLTVDKSRWQQGNVFSCSVLHEALHSHYTQKSLSLSPGK light: DIQMTQSPSSLSASVGDTVTITCQANGYLNWYQQKPGKAPKLLIYDGSKLERGVPSRFSGRRWGQEYNLTINNLQPEDIATYFCQVYEFVVPGTRLDLKRTVAAPSVFIFPPSDEQLKSGTASVVCLLNNFYPREAKVQWKVDNALQSGNSQESVTEQDSKDSTYSLSSTLTLSKADYEKHKVYACEVTHQGLSSPVTKSFNRGEC | 0.9 | 0.9

Source: patent US20220089698A1 (published 2022)
